Reference: publication PMC5913134, “The IL-33-PIN1-IRAK-M axis is critical for type 2 immunity in IL-33-induced allergic airway inflammation” (Nature Communications, 2018)

System: mouse embryonic fibroblasts (MEFs)
Experiment: IL-6 secretion by MEFs
Assay type: cell-based
Details: PIN1 KO MEFs, all IL-33 concentrations tested, 24 h
Procedure: Fig. 1 PIN1 is required for IL-33 to induces TH2 polarization and allergic inflammation. a 5 and15 min after IL-33 treatment of DC2.4 cells, cells were extracted and PIN1 activity was measured as previously described. Inset: PIN1 was immune precipitated and immune blotted for PIN1 or Ser71 phosphorylation as indicated. b WT and PIN1 KO MEF’s were treated with different concentrations of IL-33 for 24 h and the medium was measured for IL-6 secretion. c WT and PIN1 KO mice were treated with 200 ng/mice/day for 4 consecutive days and the BALF was examined for IL-4, 5, 6 and 13 by ELISA. d H&E staining representative of lungs from WT and PIN1 KO mice treated with IL-33 (n = 4). Scale bar = 50 µm. e Total cell number in the BALF of WT and PIN1 KO mice was measured using HEMAVET multispecies hematology analyzer. f Eosinophil cell number in the BALF of WT and PIN1 KO mice was measured using HEMAVET multispecies hematology analyzer. g Representative H&E staining of lung sections from WT and PIN1 KO mice after OVA-induced allergic asthma (n = 4). Scale bar = 50 µm. h IL-4, -5, -13 and IL-33 levels in the BALF of WT and PIN1 KO mice after OVA-induced allergic asthma. […] The data were analyzed by a Student’s two-tailed t test unless stated otherwise, and the values are reported as mean ± standard errors of the means (SEM). *- statistical significance (P < 0.05), **- significance (P < 0.01)

B1: IL-33: Recombinant mouse IL-33 purchased from BioLegend (protein, UniProt Q8BVZ5 1-266, looked up)
Interleukin-33: MRPRMKYSNSKISPAKFSSTAGEALVPPCKIRRSQQKTKEFCHVYCMRLRSGLTIRKETSYFRKEPTKRYSLKSGTKHEENFSAYPRDSRKRSLLGSIQAFAASVDTLSIQGTSLLTQSPASLSTYNDQSVSFVLENGCYVINVDDSGKDQEQDQVLLRYYESPCPASQSGDGVDGKKLMVNMSPIKDTDIWLHANDKDYSVELQRGDVSPPEQAFFVLHKKSSDFVSFECKNLPGTYIGVKDNQLALVEEKDESCNNIMFKLSKI
  IL-6 secretion in response to IL-33: abolished IL-6 secretion
